Columns and labels:
[1] = target: IL-17RA and IL-17RC co-expressed on 293F-IL-17RA-IL-17Rc-ACT1-NFκB-Luc cells (UniProt Q96F46); experiment: FACS, IL-17A on 293 cells overexpressing IL-17RA and IL-17RC
[2] = target: T1, Human IL-17A重组蛋白 (IL-17A-His) (human, UniProt Q16552 24-155, biotin label in the ELISA of Example 2 (Biotin-IL-17A-His); site not stated); experiment: cell-based or functional assay
[3] = target: T1, Human IL-17A重组蛋白 (IL-17A-His); experiment: ELISA, antibody coated at 2 ug/mL, Biotin-IL-17A-His titrated from 10 ug/mL (5-fold, 7 points), HRP-streptavidin

T1 sequence (Q16552 other isoform, or with tags, fused parts or gaps limits assumed): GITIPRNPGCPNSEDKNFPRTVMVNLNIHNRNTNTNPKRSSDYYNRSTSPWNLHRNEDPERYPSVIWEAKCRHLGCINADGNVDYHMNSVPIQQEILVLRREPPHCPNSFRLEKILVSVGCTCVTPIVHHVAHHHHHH
Chain of Human IL-17A重组蛋白 (IL-17A-His) (Q16552 other isoform, or with tags, fused parts or gaps limits assumed): as above

| Molecule | 阳性率 [1] [%] | IC50, 阻断活性 (reporter cells) [2] [µg/mL] | EC50 [3] [µg/mL] |
| --- | --- | --- | --- |
| Human IL-17A重组蛋白 (IL-17A-His) (from UniProt Q16552 24-155) (ligand) | > 90 | – | – |
| Ixekizumab (antibody, human IgG4 S228P, kappa, V domains shown, Made in house from the variable regions cloned into pcDNA3.4-hIgG4 and pcDNA3.4-hIgKc vectors; positive control; also called 阳性对照抗体Ixekizumab; 对照抗体Ixekizumab) VH: QVQLVQSGAEVKKPGSSVKVSCKASGYSFTDYHIHWVRQAPGQGLEWMGVINPMYGTTDYNQRFKGRVTITADESTSTAYMELSSLRSEDTAVYYCARYDYFTGTGVYWGQGTLVTVSS VL: DIVMTQTPLSLSVTPGQPASISCRSSRSLVHSRGNTYLHWYLQKPGQSPQLLIYKVSNRFIGVPDRFSGSGSGTDFTLKISRVEAEDVGVYYCSQSTHLPFTFGQGTKLEIKR | – | 1.36 | 10.1 |
| 串联纳米抗体C11-1-F2 (Fc fusion) DVQLVESGGGLVQPGGSLRLSCAASESLLRLYAMGWYRQLPGQEREWVAIHTTSDTTNYRDSVKGRFTLSRDVATNTIYLQMTSLKPEDTAVYYCHVTSMRDSQNYWGQGTQVTVSSGGGGSGGGGSGGGGSQVQLVESGGGLVQPGGSMRLSCAASTIGLSIYSGAWYRQAAGKQRELVARITRRGVTNYADSVKGRFTISKDNAKNTVSLEMNSLKPEDTAVYYCNVGGEDGYWGQGTQVTVSS | – | 1.16 | 0.745 |
| 单域抗体(1)(1-C11) (Fc fusion) DVQLVESGGGLVQPGGSLRLSCAASESLLRLYAMGWYRQLPGQEREWVAIHTTSDTTNYRDSVKGRFTLSRDVATNTIYLQMTSLKPEDTAVYYCHVTSMRDSQNYWGQGTQVTVSS | – | 18.8 | 30 |
| 单域抗体(2)(1-F2) (Fc fusion) QVQLVESGGGLVQPGGSMRLSCAASTIGLSIYSGAWYRQAAGKQRELVARITRRGVTNYADSVKGRFTISKDNAKNTVSLEMNSLKPEDTAVYYCNVGGEDGYWGQGTQVTVSS | – | 14.2 | 4.04 |

From CN117843801A (BEILAI PHARMACEUTICAL CO LTD, dated 2024)
